Data reported in US20180155451A1 (published 2018).

How the values were obtained:
Assay in all cases: SPR (Biacore); KD of H240-Kn061/H240-Hl071/L73-k0 divided by KD of the variant
FcgRIIb = target: T1, FcgRIIb (human, UniProt P31994 43-217)
T1 construct: extracellular domain; also called FcγRIIb; not shown: His tag attached to the C terminus
T1 sequence (looked up): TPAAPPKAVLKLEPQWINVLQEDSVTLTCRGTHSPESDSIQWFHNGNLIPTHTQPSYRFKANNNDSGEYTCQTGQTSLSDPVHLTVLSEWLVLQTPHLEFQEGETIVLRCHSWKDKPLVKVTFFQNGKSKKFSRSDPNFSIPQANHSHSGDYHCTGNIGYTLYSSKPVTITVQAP
Description: (§1) The antibodies were assessed for the binding to each FcgR. […] The resultant value was defined as relative KD, and used as an assessment indicator.
(§2) Analysis of interaction between obj ective antibody and the FcγR was carried out using Biacore T100 (GE Healthcare), Biacore T200, Biacore A100, and Biacore 4000. HBS-EP+ (GE Healthcare) was used as the running buffer, and the measurement temperature was set to 25° C. Chips produced by immobilizing the antigen peptide by the amine coupling method to a Series S sensor Chip CM5 (GE Healthcare), chips produced by allowing preliminarily biotinylated antigen peptides to interact with and immobilize onto a Series S Sensor Chip SA (certified) (GE Healthcare), chips produced by immobilizing Protein L (ACTIGEN, BioVision) to Series S Sencor Chip CM5 (GE Healthcare), or chips produced by immobilizing Protein A/G (Thermo Scientific) to Series S Sencor Chip CM5 (GE Healthcare) were used. Antibodies of interest were captured onto these chips, and allowed to interact to each FcγR diluted with running buffer.

FcgRIIIa F = target: T2, FcgRIIIa F (human, UniProt P08637 17-208)
T2 construct: extracellular domain; also called FcγRIIIa F; 3aF; not shown: His tag attached to the C terminus
Description: as §1, §2

FcgRIIIa V = target: T3, FcgRIIIa V (human, UniProt P08637 17-208)
T3 construct: extracellular domain; also called FcγRIIIa V; not shown: His tag attached to the C terminus
Description: as §1, §2

T3 sequence (P08637 17-208 F176V limits assumed): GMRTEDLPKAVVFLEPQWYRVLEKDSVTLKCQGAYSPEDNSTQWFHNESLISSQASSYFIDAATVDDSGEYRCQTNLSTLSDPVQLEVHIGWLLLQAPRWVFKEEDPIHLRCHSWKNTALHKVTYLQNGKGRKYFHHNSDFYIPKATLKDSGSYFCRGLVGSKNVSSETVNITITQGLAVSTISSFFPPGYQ
T2 sequence (P08637 17-208): as the sequence (P08637 17-208 F176V limits assumed) above, with V160F counted along it

B1: H240-Kn061 (W236Y)/H240-Hl071/L73-k0 (antibody, human IgG1, kappa)
heavy 1: QDQLVQSGAEVKKPGASVKVSCKASGFNIKDTYIQWVRQAPGQGLEWMGRIDPLRKQTKYREKFEGRVTITADTSTNTAYMELSSLRSEDTAVYYCVRSGREFDYWGQGTLVTVSSASTKGPSVFPLAPSSKSTSGGTAALGCLVKDYFPEPVTVSWNSGALTSGVHTFPAVLQSSGLYSLSSVVTVPSSSLGTQTYICNVNHKPSNTKVDKKVEPKSCDKTHTCPPCPAPEYYYGPSVFLFPPKPKDTLMISRTPEVTCVVVDVSDEDPEVKFNWYVDGVEVHNAKTKPREEQYNATYRVVSVLTVLHQDWLNGKEYKCKVSNKALPAPIEKTISKAKGQPREPQVCTLPPSRDELTKNQVSLWCLVKGFYPSDIAVEWESNGQPENNYKTTPPVLDSDGSFFLYSKLTVDKSRWQQGNVFSCSVMHEALHNHYTQKSLSLSP
heavy 2: QDQLVQSGAEVKKPGASVKVSCKASGFNIKDTYIQWVRQAPGQGLEWMGRIDPLRKQTKYREKFEGRVTITADTSTNTAYMELSSLRSEDTAVYYCVRSGREFDYWGQGTLVTVSSASTKGPSVFPLAPSSKSTSGGTAALGCLVKDYFPEPVTVSWNSGALTSGVHTFPAVLQSSGLYSLSSVVTVPSSSLGTQTYICNVNHKPSNTKVDKKVEPKSCDKTHTCPPCPAPELLGGPSVFLFPPKPKDTLMISRTPEVTCVVVDVSHEDPEVKFNWYVDGVEVHNAKTKPREEQYNSTYRVVSVLTVLHQDWLNGKEYKCKVSNDALPMPIEETISKAKGQPREPQVYTLPPSRCELTKNQVSLSCAVKGFYPSDIAVEWESNGQPENNYKTTPPVLDSDGSFFLVSKLTVDKSRWQQGNVFSCSVMHEALHNHYTQKSLSLSP
light: DIQMTQSPSSLSASVGDRVTITCRASQDIHKYIAWYQQKPGQAPRLLIQYTSTLQPGVPSRFSGSGSGTDYTFTISSLQPEDIATYYCLQYEQLRTFGGGTKVEIKRTVAAPSVFIFPPSDEQLKSGTASVVCLLNNFYPREAKVQWKVDNALQSGNSQESVTEQDSKDSTYSLSSTLTLSKADYEKHKVYACEVTHQGLSSPVTKSFNRGEC
In the case of B1, the “Relative KD” value (FcgRIIb) is reported as 0.8, the “Relative KD” value (FcgRIIIa F) is reported as 0.8 and the “Relative KD” value (FcgRIIIa V) is reported as 1.2.

B2: H240-Kn061 (Y234A)/H240-Hl071/L73-k0 (antibody, human IgG1, kappa)
heavy 1: QDQLVQSGAEVKKPGASVKVSCKASGFNIKDTYIQWVRQAPGQGLEWMGRIDPLRKQTKYREKFEGRVTITADTSTNTAYMELSSLRSEDTAVYYCVRSGREFDYWGQGTLVTVSSASTKGPSVFPLAPSSKSTSGGTAALGCLVKDYFPEPVTVSWNSGALTSGVHTFPAVLQSSGLYSLSSVVTVPSSSLGTQTYICNVNHKPSNTKVDKKVEPKSCDKTHTCPPCPAPEAYWGPSVFLFPPKPKDTLMISRTPEVTCVVVDVSDEDPEVKFNWYVDGVEVHNAKTKPREEQYNATYRVVSVLTVLHQDWLNGKEYKCKVSNKALPAPIEKTISKAKGQPREPQVCTLPPSRDELTKNQVSLWCLVKGFYPSDIAVEWESNGQPENNYKTTPPVLDSDGSFFLYSKLTVDKSRWQQGNVFSCSVMHEALHNHYTQKSLSLSP
heavy 2: QDQLVQSGAEVKKPGASVKVSCKASGFNIKDTYIQWVRQAPGQGLEWMGRIDPLRKQTKYREKFEGRVTITADTSTNTAYMELSSLRSEDTAVYYCVRSGREFDYWGQGTLVTVSSASTKGPSVFPLAPSSKSTSGGTAALGCLVKDYFPEPVTVSWNSGALTSGVHTFPAVLQSSGLYSLSSVVTVPSSSLGTQTYICNVNHKPSNTKVDKKVEPKSCDKTHTCPPCPAPELLGGPSVFLFPPKPKDTLMISRTPEVTCVVVDVSHEDPEVKFNWYVDGVEVHNAKTKPREEQYNSTYRVVSVLTVLHQDWLNGKEYKCKVSNDALPMPIEETISKAKGQPREPQVYTLPPSRCELTKNQVSLSCAVKGFYPSDIAVEWESNGQPENNYKTTPPVLDSDGSFFLVSKLTVDKSRWQQGNVFSCSVMHEALHNHYTQKSLSLSP
light: DIQMTQSPSSLSASVGDRVTITCRASQDIHKYIAWYQQKPGQAPRLLIQYTSTLQPGVPSRFSGSGSGTDYTFTISSLQPEDIATYYCLQYEQLRTFGGGTKVEIKRTVAAPSVFIFPPSDEQLKSGTASVVCLLNNFYPREAKVQWKVDNALQSGNSQESVTEQDSKDSTYSLSSTLTLSKADYEKHKVYACEVTHQGLSSPVTKSFNRGEC
In the case of B2, the “Relative KD” value (FcgRIIb) is reported as 1.2, the “Relative KD” value (FcgRIIIa F) is reported as 0.8 and the “Relative KD” value (FcgRIIIa V) is reported as 0.9.

B3: H240-Kn061 (Y234H)/H240-Hl071/L73-k0 (antibody, human IgG1, kappa)
heavy 1: QDQLVQSGAEVKKPGASVKVSCKASGFNIKDTYIQWVRQAPGQGLEWMGRIDPLRKQTKYREKFEGRVTITADTSTNTAYMELSSLRSEDTAVYYCVRSGREFDYWGQGTLVTVSSASTKGPSVFPLAPSSKSTSGGTAALGCLVKDYFPEPVTVSWNSGALTSGVHTFPAVLQSSGLYSLSSVVTVPSSSLGTQTYICNVNHKPSNTKVDKKVEPKSCDKTHTCPPCPAPEHYWGPSVFLFPPKPKDTLMISRTPEVTCVVVDVSDEDPEVKFNWYVDGVEVHNAKTKPREEQYNATYRVVSVLTVLHQDWLNGKEYKCKVSNKALPAPIEKTISKAKGQPREPQVCTLPPSRDELTKNQVSLWCLVKGFYPSDIAVEWESNGQPENNYKTTPPVLDSDGSFFLYSKLTVDKSRWQQGNVFSCSVMHEALHNHYTQKSLSLSP
heavy 2: QDQLVQSGAEVKKPGASVKVSCKASGFNIKDTYIQWVRQAPGQGLEWMGRIDPLRKQTKYREKFEGRVTITADTSTNTAYMELSSLRSEDTAVYYCVRSGREFDYWGQGTLVTVSSASTKGPSVFPLAPSSKSTSGGTAALGCLVKDYFPEPVTVSWNSGALTSGVHTFPAVLQSSGLYSLSSVVTVPSSSLGTQTYICNVNHKPSNTKVDKKVEPKSCDKTHTCPPCPAPELLGGPSVFLFPPKPKDTLMISRTPEVTCVVVDVSHEDPEVKFNWYVDGVEVHNAKTKPREEQYNSTYRVVSVLTVLHQDWLNGKEYKCKVSNDALPMPIEETISKAKGQPREPQVYTLPPSRCELTKNQVSLSCAVKGFYPSDIAVEWESNGQPENNYKTTPPVLDSDGSFFLVSKLTVDKSRWQQGNVFSCSVMHEALHNHYTQKSLSLSP
light: DIQMTQSPSSLSASVGDRVTITCRASQDIHKYIAWYQQKPGQAPRLLIQYTSTLQPGVPSRFSGSGSGTDYTFTISSLQPEDIATYYCLQYEQLRTFGGGTKVEIKRTVAAPSVFIFPPSDEQLKSGTASVVCLLNNFYPREAKVQWKVDNALQSGNSQESVTEQDSKDSTYSLSSTLTLSKADYEKHKVYACEVTHQGLSSPVTKSFNRGEC
For B3, the “Relative KD” value (FcgRIIb) was 1.3, the “Relative KD” value (FcgRIIIa F) was 0.8 and the “Relative KD” value (FcgRIIIa V) was 0.9.

B4: H240-Kn061 (Y234G)/H240-Hl071/L73-k0 (antibody, human IgG1, kappa)
heavy 1: QDQLVQSGAEVKKPGASVKVSCKASGFNIKDTYIQWVRQAPGQGLEWMGRIDPLRKQTKYREKFEGRVTITADTSTNTAYMELSSLRSEDTAVYYCVRSGREFDYWGQGTLVTVSSASTKGPSVFPLAPSSKSTSGGTAALGCLVKDYFPEPVTVSWNSGALTSGVHTFPAVLQSSGLYSLSSVVTVPSSSLGTQTYICNVNHKPSNTKVDKKVEPKSCDKTHTCPPCPAPEGYWGPSVFLFPPKPKDTLMISRTPEVTCVVVDVSDEDPEVKFNWYVDGVEVHNAKTKPREEQYNATYRVVSVLTVLHQDWLNGKEYKCKVSNKALPAPIEKTISKAKGQPREPQVCTLPPSRDELTKNQVSLWCLVKGFYPSDIAVEWESNGQPENNYKTTPPVLDSDGSFFLYSKLTVDKSRWQQGNVFSCSVMHEALHNHYTQKSLSLSP
heavy 2: QDQLVQSGAEVKKPGASVKVSCKASGFNIKDTYIQWVRQAPGQGLEWMGRIDPLRKQTKYREKFEGRVTITADTSTNTAYMELSSLRSEDTAVYYCVRSGREFDYWGQGTLVTVSSASTKGPSVFPLAPSSKSTSGGTAALGCLVKDYFPEPVTVSWNSGALTSGVHTFPAVLQSSGLYSLSSVVTVPSSSLGTQTYICNVNHKPSNTKVDKKVEPKSCDKTHTCPPCPAPELLGGPSVFLFPPKPKDTLMISRTPEVTCVVVDVSHEDPEVKFNWYVDGVEVHNAKTKPREEQYNSTYRVVSVLTVLHQDWLNGKEYKCKVSNDALPMPIEETISKAKGQPREPQVYTLPPSRCELTKNQVSLSCAVKGFYPSDIAVEWESNGQPENNYKTTPPVLDSDGSFFLVSKLTVDKSRWQQGNVFSCSVMHEALHNHYTQKSLSLSP
light: DIQMTQSPSSLSASVGDRVTITCRASQDIHKYIAWYQQKPGQAPRLLIQYTSTLQPGVPSRFSGSGSGTDYTFTISSLQPEDIATYYCLQYEQLRTFGGGTKVEIKRTVAAPSVFIFPPSDEQLKSGTASVVCLLNNFYPREAKVQWKVDNALQSGNSQESVTEQDSKDSTYSLSSTLTLSKADYEKHKVYACEVTHQGLSSPVTKSFNRGEC
In the case of B4, the “Relative KD” value (FcgRIIb) is reported as 0.9, the “Relative KD” value (FcgRIIIa F) is reported as 0.8 and the “Relative KD” value (FcgRIIIa V) is reported as 0.9.
